Results on six molecules are retold here after patent US20140087995A1 (published 2014).

First the molecules themselves.
B1: N^ε-[2-[2-[2-[[(4S)-4-carboxy-4-(19-carboxynonadecanoylamino)butanoyl]amino]ethoxy]ethoxy]acetyl]Lys[Arg1,Arg17,Pro21,Pro27,His35]-h-amylin (peptide)
peptide: K([AEEA-γGlu-C20 diacid])RCNTATCATQRLANFLRHSSPNFGAIPSSTNVGSHTY-NH2
modifications: disulfide 3-8; N-terminus assumed
SMILES: CC[C@H](C)[C@H](NC(=O)[C@H](C)NC(=O)CNC(=O)[C@H](Cc1ccccc1)NC(=O)[C@H](CC(N)=O)NC(=O)[C@@H]1CCCN1C(=O)[C@H](CO)NC(=O)[C@H](CO)NC(=O)[C@H](Cc1c[nH]cn1)NC(=O)[C@H](CCCNC(=N)N)NC(=O)[C@H](CC(C)C)NC(=O)[C@H](Cc1ccccc1)NC(=O)[C@H](CC(N)=O)NC(=O)[C@H](C)NC(=O)[C@H](CC(C)C)NC(=O)[C@H](CCCNC(=N)N)NC(=O)[C@H](CCC(N)=O)NC(=O)[C@@H](NC(=O)[C@H](C)NC(=O)[C@@H]1CSSC[C@H](NC(=O)[C@H](CCCNC(=N)N)NC(=O)[C@@H](N)CCCCNC(=O)COCCOCCNC(=O)CC[C@H](NC(=O)CCCCCCCCCCCCCCCCCCC(=O)O)C(=O)O)C(=O)N[C@@H](CC(N)=O)C(=O)N[C@@H]([C@@H](C)O)C(=O)N[C@@H](C)C(=O)N[C@@H]([C@@H](C)O)C(=O)N1)[C@@H](C)O)C(=O)N1CCC[C@H]1C(=O)N[C@@H](CO)C(=O)N[C@@H](CO)C(=O)N[C@H](C(=O)N[C@@H](CC(N)=O)C(=O)N[C@H](C(=O)NCC(=O)N[C@@H](CO)C(=O)N[C@@H](Cc1c[nH]cn1)C(=O)N[C@H](C(=O)N[C@@H](Cc1ccc(O)cc1)C(N)=O)[C@@H](C)O)C(C)C)[C@@H](C)O
notes: Synthetic analogue, extended by Lys at the N-terminus; also called compound 45
B2: N^ε-[(4S)-4-carboxy-4-(19-carboxynonadecanoylamino)butanoyl]Lys[Arg1,Arg17,Pro21,Pro27,His35]-h-amylin (peptide)
peptide: K([γGlu-C20 diacid])RCNTATCATQRLANFLRHSSPNFGAIPSSTNVGSHTY-NH2
modifications: disulfide 3-8; N-terminus assumed
SMILES: CC[C@H](C)[C@H](NC(=O)[C@H](C)NC(=O)CNC(=O)[C@H](Cc1ccccc1)NC(=O)[C@H](CC(N)=O)NC(=O)[C@@H]1CCCN1C(=O)[C@H](CO)NC(=O)[C@H](CO)NC(=O)[C@H](Cc1c[nH]cn1)NC(=O)[C@H](CCCNC(=N)N)NC(=O)[C@H](CC(C)C)NC(=O)[C@H](Cc1ccccc1)NC(=O)[C@H](CC(N)=O)NC(=O)[C@H](C)NC(=O)[C@H](CC(C)C)NC(=O)[C@H](CCCNC(=N)N)NC(=O)[C@H](CCC(N)=O)NC(=O)[C@@H](NC(=O)[C@H](C)NC(=O)[C@@H]1CSSC[C@H](NC(=O)[C@H](CCCNC(=N)N)NC(=O)[C@@H](N)CCCCNC(=O)CC[C@H](NC(=O)CCCCCCCCCCCCCCCCCCC(=O)O)C(=O)O)C(=O)N[C@@H](CC(N)=O)C(=O)N[C@@H]([C@@H](C)O)C(=O)N[C@@H](C)C(=O)N[C@@H]([C@@H](C)O)C(=O)N1)[C@@H](C)O)C(=O)N1CCC[C@H]1C(=O)N[C@@H](CO)C(=O)N[C@@H](CO)C(=O)N[C@H](C(=O)N[C@@H](CC(N)=O)C(=O)N[C@H](C(=O)NCC(=O)N[C@@H](CO)C(=O)N[C@@H](Cc1c[nH]cn1)C(=O)N[C@H](C(=O)N[C@@H](Cc1ccc(O)cc1)C(N)=O)[C@@H](C)O)C(C)C)[C@@H](C)O
notes: Synthetic analogue, extended by Lys at the N-terminus; also called compound 44
B3: N^-1-[(4S)-4-carboxy-4-(19-carboxynonadecanoylamino)butanoyl]-Gly[Arg1,Arg17,Pro21,Pro27]-h-amylin (peptide)
peptide: {C20 diacid-γGlu}-GRCNTATCATQRLANFLRHSSPNFGAIPSSTNVGSNTY-NH2
modifications: disulfide 3-8
SMILES: CC[C@H](C)[C@H](NC(=O)[C@H](C)NC(=O)CNC(=O)[C@H](Cc1ccccc1)NC(=O)[C@H](CC(N)=O)NC(=O)[C@@H]1CCCN1C(=O)[C@H](CO)NC(=O)[C@H](CO)NC(=O)[C@H](Cc1c[nH]cn1)NC(=O)[C@H](CCCNC(=N)N)NC(=O)[C@H](CC(C)C)NC(=O)[C@H](Cc1ccccc1)NC(=O)[C@H](CC(N)=O)NC(=O)[C@H](C)NC(=O)[C@H](CC(C)C)NC(=O)[C@H](CCCNC(=N)N)NC(=O)[C@H](CCC(N)=O)NC(=O)[C@@H](NC(=O)[C@H](C)NC(=O)[C@@H]1CSSC[C@H](NC(=O)[C@H](CCCNC(=N)N)NC(=O)CNC(=O)CC[C@H](NC(=O)CCCCCCCCCCCCCCCCCCC(=O)O)C(=O)O)C(=O)N[C@@H](CC(N)=O)C(=O)N[C@@H]([C@@H](C)O)C(=O)N[C@@H](C)C(=O)N[C@@H]([C@@H](C)O)C(=O)N1)[C@@H](C)O)C(=O)N1CCC[C@H]1C(=O)N[C@@H](CO)C(=O)N[C@@H](CO)C(=O)N[C@H](C(=O)N[C@@H](CC(N)=O)C(=O)N[C@H](C(=O)NCC(=O)N[C@@H](CO)C(=O)N[C@@H](CC(N)=O)C(=O)N[C@H](C(=O)N[C@@H](Cc1ccc(O)cc1)C(N)=O)[C@@H](C)O)C(C)C)[C@@H](C)O
notes: Synthetic analogue, extended by Gly at the N-terminus; also called compound 46
B4: N^-1-[(4S)-4-carboxy-4-(19-carboxynonadecanoylamino)butanoyl]-Gly[Arg1,Arg17,Pro21,Pro27,His35]-h-amylin (peptide)
peptide: {C20 diacid-γGlu}-GRCNTATCATQRLANFLRHSSPNFGAIPSSTNVGSHTY-NH2
modifications: disulfide 3-8
SMILES: CC[C@H](C)[C@H](NC(=O)[C@H](C)NC(=O)CNC(=O)[C@H](Cc1ccccc1)NC(=O)[C@H](CC(N)=O)NC(=O)[C@@H]1CCCN1C(=O)[C@H](CO)NC(=O)[C@H](CO)NC(=O)[C@H](Cc1c[nH]cn1)NC(=O)[C@H](CCCNC(=N)N)NC(=O)[C@H](CC(C)C)NC(=O)[C@H](Cc1ccccc1)NC(=O)[C@H](CC(N)=O)NC(=O)[C@H](C)NC(=O)[C@H](CC(C)C)NC(=O)[C@H](CCCNC(=N)N)NC(=O)[C@H](CCC(N)=O)NC(=O)[C@@H](NC(=O)[C@H](C)NC(=O)[C@@H]1CSSC[C@H](NC(=O)[C@H](CCCNC(=N)N)NC(=O)CNC(=O)CC[C@H](NC(=O)CCCCCCCCCCCCCCCCCCC(=O)O)C(=O)O)C(=O)N[C@@H](CC(N)=O)C(=O)N[C@@H]([C@@H](C)O)C(=O)N[C@@H](C)C(=O)N[C@@H]([C@@H](C)O)C(=O)N1)[C@@H](C)O)C(=O)N1CCC[C@H]1C(=O)N[C@@H](CO)C(=O)N[C@@H](CO)C(=O)N[C@H](C(=O)N[C@@H](CC(N)=O)C(=O)N[C@H](C(=O)NCC(=O)N[C@@H](CO)C(=O)N[C@@H](Cc1c[nH]cn1)C(=O)N[C@H](C(=O)N[C@@H](Cc1ccc(O)cc1)C(N)=O)[C@@H](C)O)C(C)C)[C@@H](C)O
notes: Synthetic analogue, extended by Gly at the N-terminus; also called compound 47
B5: N^ε1-[2-[2-[2-(19-carboxynonadecanoylamino)ethoxy]ethoxy]acetyl]-[Arg17,Pro21,Pro27]-h-amylin (peptide)
peptide: K([AEEA-C20 diacid])CNTATCATQRLANFLRHSSPNFGAIPSSTNVGSNTY-NH2
modifications: disulfide 2-7; N-terminus assumed
SMILES: CC[C@H](C)[C@H](NC(=O)[C@H](C)NC(=O)CNC(=O)[C@H](Cc1ccccc1)NC(=O)[C@H](CC(N)=O)NC(=O)[C@@H]1CCCN1C(=O)[C@H](CO)NC(=O)[C@H](CO)NC(=O)[C@H](Cc1c[nH]cn1)NC(=O)[C@H](CCCNC(=N)N)NC(=O)[C@H](CC(C)C)NC(=O)[C@H](Cc1ccccc1)NC(=O)[C@H](CC(N)=O)NC(=O)[C@H](C)NC(=O)[C@H](CC(C)C)NC(=O)[C@H](CCCNC(=N)N)NC(=O)[C@H](CCC(N)=O)NC(=O)[C@@H](NC(=O)[C@H](C)NC(=O)[C@@H]1CSSC[C@H](NC(=O)[C@@H](N)CCCCNC(=O)COCCOCCNC(=O)CCCCCCCCCCCCCCCCCCC(=O)O)C(=O)N[C@@H](CC(N)=O)C(=O)N[C@@H]([C@@H](C)O)C(=O)N[C@@H](C)C(=O)N[C@@H]([C@@H](C)O)C(=O)N1)[C@@H](C)O)C(=O)N1CCC[C@H]1C(=O)N[C@@H](CO)C(=O)N[C@@H](CO)C(=O)N[C@H](C(=O)N[C@@H](CC(N)=O)C(=O)N[C@H](C(=O)NCC(=O)N[C@@H](CO)C(=O)N[C@@H](CC(N)=O)C(=O)N[C@H](C(=O)N[C@@H](Cc1ccc(O)cc1)C(N)=O)[C@@H](C)O)C(C)C)[C@@H](C)O
notes: Synthetic analogue; also called compound 43
B6: N^ε1-[(4S)-4-carboxy-4-(19-carboxynonadecanoylamino)butanoyl]-[Arg17,Pro21,Pro27]-h-amylin (peptide)
peptide: K([γGlu-C20 diacid])CNTATCATQRLANFLRHSSPNFGAIPSSTNVGSNTY-NH2
modifications: disulfide 2-7; N-terminus assumed
SMILES: CC[C@H](C)[C@H](NC(=O)[C@H](C)NC(=O)CNC(=O)[C@H](Cc1ccccc1)NC(=O)[C@H](CC(N)=O)NC(=O)[C@@H]1CCCN1C(=O)[C@H](CO)NC(=O)[C@H](CO)NC(=O)[C@H](Cc1c[nH]cn1)NC(=O)[C@H](CCCNC(=N)N)NC(=O)[C@H](CC(C)C)NC(=O)[C@H](Cc1ccccc1)NC(=O)[C@H](CC(N)=O)NC(=O)[C@H](C)NC(=O)[C@H](CC(C)C)NC(=O)[C@H](CCCNC(=N)N)NC(=O)[C@H](CCC(N)=O)NC(=O)[C@@H](NC(=O)[C@H](C)NC(=O)[C@@H]1CSSC[C@H](NC(=O)[C@@H](N)CCCCNC(=O)CC[C@H](NC(=O)CCCCCCCCCCCCCCCCCCC(=O)O)C(=O)O)C(=O)N[C@@H](CC(N)=O)C(=O)N[C@@H]([C@@H](C)O)C(=O)N[C@@H](C)C(=O)N[C@@H]([C@@H](C)O)C(=O)N1)[C@@H](C)O)C(=O)N1CCC[C@H]1C(=O)N[C@@H](CO)C(=O)N[C@@H](CO)C(=O)N[C@H](C(=O)N[C@@H](CC(N)=O)C(=O)N[C@H](C(=O)NCC(=O)N[C@@H](CO)C(=O)N[C@@H](CC(N)=O)C(=O)N[C@H](C(=O)N[C@@H](Cc1ccc(O)cc1)C(N)=O)[C@@H](C)O)C(C)C)[C@@H](C)O
notes: Synthetic analogue; also called compound 48

Numbered stars: 1 amine (or outer) side, 2 acyl side, 3 side chain; on linkers, the order of the positions; unused ones are H or OH. Bridge positions count the residues as written; N and C are the ends. Side chains are listed from the residue outwards. Ends that are not written are not given here. * marks the point of attachment. C20 diacid = O=C(O)CCCCCCCCCCCCCCCCCCC(=O)*; γGlu = O=C(O)[C@H](CCC(=O)[*:2])N[*:1]; AEEA = NCCOCCOCC(=O)O

One test deals with T1, human calcitonin receptor (human, UniProt P30988 25-474).
T1 construct: whole, on cells; Assay used cell membranes of the transfected BHK cells; also called hCTR; hCT
T1 sequence (looked up): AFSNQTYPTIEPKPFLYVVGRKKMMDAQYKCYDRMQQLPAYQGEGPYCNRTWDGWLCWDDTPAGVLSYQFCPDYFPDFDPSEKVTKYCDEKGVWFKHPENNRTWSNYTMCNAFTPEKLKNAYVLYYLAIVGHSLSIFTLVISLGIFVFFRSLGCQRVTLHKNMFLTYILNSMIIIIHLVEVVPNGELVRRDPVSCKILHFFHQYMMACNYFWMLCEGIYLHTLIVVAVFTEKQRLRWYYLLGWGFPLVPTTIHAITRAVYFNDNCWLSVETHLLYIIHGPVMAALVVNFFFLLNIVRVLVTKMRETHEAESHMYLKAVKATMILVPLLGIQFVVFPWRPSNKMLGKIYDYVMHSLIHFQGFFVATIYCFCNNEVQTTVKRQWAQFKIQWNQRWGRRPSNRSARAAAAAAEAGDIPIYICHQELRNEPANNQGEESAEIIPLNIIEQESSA
The experiment in a line: SPA radioligand competition (125I-calcitonin), membranes of BHK cells with human calcitonin receptor. The gist of the method:
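BHK hCTR membranes 35 ng/μL + SPA beads 0.05 mg/well; buffer 50 mM Hepes pH 7.4, 1 mM CaCl2, 5 mM MgCl₂, 0.1% OA, 0.02% Tween20. 120 min, 25° C., shaking. Scintillation count; IC50 by one-site binding competition.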
A general note: In a radioligand displacement assay an active substance lowers the binding of a labelled ligand.
In the case of B1, the concentration for half-maximal inhibition (IC50) – broadly, the concentration needed to halve the response being measured – stood at 14.8 nM.
As for B2, the 50% inhibitory concentration (IC50) stood at 4.87 nM.
For B3, the IC50 came to 9.53 nM.
On the same count and under the same terms, with B4 the figure was 15.5 nM; with B5, 2.64 nM; with B6, 30.9 nM.

For a further test, the target named is T1, human calcitonin receptor. As to the kind of experiment: ratio IC50 hCTR / IC50 hAmylin-R of the two SPA competition assays; reference: human amylin receptor. The gist of the method: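 Competition binding by SPA uses membrane preparations (35 ng/μL final) in pH 7.4 Hepes buffer with 1 mM CaCl2 and 5 mM MgCl₂. Incubation lasts 120 min at 25° C, and IC₅₀ comes from one-site fitting.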
As to B1, the “Ratio hCT/hAmylin binding” value amounted to 26.8.
With B2, the “Ratio hCT/hAmylin binding” value amounted to 17.7.
On the same count and under the same terms, with B3 the figure was 48.9; with B4, 44.9.
On the same count and under the same terms, with B5 the figure was 34.7; with B6, 69.7.
